Experimental data as given in publication PMC4102245, “A molecular model for the role of SYCP3 in meiotic chromosome organisation” (eLife, 2014).
Where a chain is given by its changes, count along the chain named.

Legend:
[1] = molecular target: SYCP3_(ΔCt6) (human SYCP3 amino acids 1–230) (human) (UniProt Q8IZU3); test: SEC-MALS; Superdex 200 Increase 10/300 GL, 20 mM Tris pH 8.0, 500 mM KCl; oligomer size of the eluted peak
[2] = molecular target: SYCP3_(ΔNt6) (full length human SYCP3 with 69-EVQNML-74 mutated to alanines) (human) (UniProt Q8IZU3); test: as above
[3] = molecular target: the molecule itself; test: as above
[4] = molecular target: the molecule itself; test: SEC-MALS; Superdex 200 10/300 GL, 100 μl of 2–3 mg/ml, 20 mM Tris pH 8.0, 500 mM KCl, 25°C; oligomer size of the eluted peak
SYCP3 dCt6 WT = molecular target: T1, SYCP3 dCt6 WT (human, UniProt Q8IZU3 1-230); test: fluorescence anisotropy; Kd per SYCP3 tetramer; 20 mM Tris pH 8.0, 150 mM KCl; FA at 25 C with 25 nM DNA (0-20 uM protein); EMSA 5 min at 4 C with 18.7 uM (per bp) DNA (0-40 uM protein), 0.5% agarose, 0.5x TBE; details: protein: recombinant; tags: N-terminal His6, TEV-cleaved; chain copies: 4; label: 5' FAM
T1 sequence: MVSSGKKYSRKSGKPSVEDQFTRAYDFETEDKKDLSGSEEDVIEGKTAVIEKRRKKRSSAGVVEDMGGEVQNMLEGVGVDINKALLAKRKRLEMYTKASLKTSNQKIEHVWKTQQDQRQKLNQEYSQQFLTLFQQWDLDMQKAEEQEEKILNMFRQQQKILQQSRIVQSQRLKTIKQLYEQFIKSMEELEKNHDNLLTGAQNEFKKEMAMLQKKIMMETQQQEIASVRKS

[5] = molecular target: the molecule itself; test: SEC-MALS; Superdex 200 10/300 GL, 100 μl of 2–3 mg/ml, 20 mM Tris pH 8.0, 150 mM KCl, 25°C; oligomer size of the eluted peak

SYCP3_(ΔCt6) (human SYCP3 amino acids 1–230) (from UniProt Q8IZU3 1-230) (domain or fragment)
stoichiometry N [1]: 4

SYCP3_(ΔNt6) (full length human SYCP3 with 69-EVQNML-74 mutated to alanines) (from UniProt Q8IZU3 1-236)
stoichiometry N [2]: 4

B1: SYCP3_(ΔCt6) ΔBP1 (amino acids 1–230, BP1 52-KRRKKR-57 mutated to alanines) (domain or fragment, human, UniProt Q8IZU3 1-230, looked up)
chain: T1 sequence with K52A, R53A, R54A, K55A, K56A, R57A
notes: Synaptonemal complex protein 3 (SYCP3), human, Swissprot Q8IZU3, amino acids 1-230 with basic patch 1 mutated to alanines; source: E. coli BL21(DE3) Rosetta2, purified as described for wild type SYCP3_(ΔCt6); not shown: His6, N-terminal, cleaved
stoichiometry N [3]: 4

B2: SYCP3_(ΔCt6) ΔBP1+2 (amino acids 1–230, BP1 and BP2 mutated to alanines) (domain or fragment, human, UniProt Q8IZU3 1-230, looked up)
chain: T1 sequence with K52A, R53A, R54A, K55A, K56A, R57A, K88A, R89A, K90A, R91A
notes: Synaptonemal complex protein 3 (SYCP3), human, Swissprot Q8IZU3, amino acids 1-230 with both basic patches mutated to alanines; source: E. coli BL21(DE3) Rosetta2, purified as described for wild type SYCP3_(ΔCt6); not shown: His6, N-terminal, cleaved
stoichiometry N [3]: 4

B3: SYCP3_(ΔCt6) ΔBP2 (amino acids 1–230, BP2 88-KRKR-91 mutated to alanines) (domain or fragment, human, UniProt Q8IZU3 1-230, looked up)
chain: T1 sequence with K88A, R89A, K90A, R91A
notes: Synaptonemal complex protein 3 (SYCP3), human, Swissprot Q8IZU3, amino acids 1-230 with basic patch 2 mutated to alanines; source: E. coli BL21(DE3) Rosetta2, purified as described for wild type SYCP3_(ΔCt6); not shown: His6, N-terminal, cleaved
stoichiometry N [3]: 4

B4: SYCP3FL (full length human SYCP3, amino acids 1–236) (natural protein, UniProt Q8IZU3 1-236, looked up)
chain: MVSSGKKYSRKSGKPSVEDQFTRAYDFETEDKKDLSGSEEDVIEGKTAVIEKRRKKRSSAGVVEDMGGEVQNMLEGVGVDINKALLAKRKRLEMYTKASLKTSNQKIEHVWKTQQDQRQKLNQEYSQQFLTLFQQWDLDMQKAEEQEEKILNMFRQQQKILQQSRIVQSQRLKTIKQLYEQFIKSMEELEKNHDNLLTGAQNEFKKEMAMLQKKIMMETQQQEIASVRKSLQSMLF
notes: Synaptonemal complex protein 3 (SYCP3), human, Swissprot Q8IZU3, amino acids 1-236 (full length); The methods tell no TEV cleavage for SYCP3FL (only Ni-NTA and buffer exchange), so the His6 tag may have been kept; the printed theoretical tetramer size is 111 kDa; also called full length SYCP3; source: E. coli BL21(DE3) Rosetta2, purified (Ni-NTA, buffer exchange into 20 mM Tris pH 8.0, 500 mM KCl)
stoichiometry N [4]: 4

B5: 60 bp FAM-dsDNA (dsDNA)
DNA 1: ATGGTGTGTGTAGGTTAATGTGAGGAGGAGAGGTGAAGAAGGAGGAGAGAAGAAGGAGGC
DNA 2: GCCTCCTTCTTCTCTCCTCCTTCTTCACCTCTCCTCCTCACATTAACCTACACACACCAT
Kd (SYCP3 dCt6 WT): 0.2 µM

B6: SYCP3_(Core) (human SYCP3 amino acids 66–230) (domain or fragment, UniProt Q8IZU3 66-230, looked up)
chain: MGGEVQNMLEGVGVDINKALLAKRKRLEMYTKASLKTSNQKIEHVWKTQQDQRQKLNQEYSQQFLTLFQQWDLDMQKAEEQEEKILNMFRQQQKILQQSRIVQSQRLKTIKQLYEQFIKSMEELEKNHDNLLTGAQNEFKKEMAMLQKKIMMETQQQEIASVRKS
notes: Synaptonemal complex protein 3 (SYCP3), human, Swissprot Q8IZU3, amino acids 66-230; Cloned in pHAT4 with an N-terminal TEV-cleavable His6 tag; homotetramer by SEC-MALS, AUC and crystal structure; also called SYCP_(Core); not shown: His6, N-terminal, cleaved
stoichiometry N [5]: 4
